Substrate in the data set: O=[N+]([O-])c1ccc(Cl)c([N+](=O)[O-])c1
The data set can be described thus: purified protein. Particulars: GSH co-substrate (30 μL of 60 mM in 900 μL). The data set is classed as biochemical, Saccharina japonica.

The mark [1] stands for this setting: 0.1 M potassium phosphate pH 8.0, 20 °C.
The mark [2] stands for this setting: 0.1 M potassium phosphate pH 7.0, 20 °C.

As a reminder, the Km is the concentration of substrate that gives half-maximal velocity. One may read the kcat as the number of substrate molecules converted per active site and unit of time at saturation. In general, kcat/Km refers to the turnover number divided by the Michaelis constant.

B1: SjGST22 (Saccharina japonica) (protein)
chain: MAPKLVLTYFDIAGAAEAVRWALEQSGLEWEDKRLTRDEFGALKPSLPNGQVPILEVDGFVLAQSQAILRYVGKLGGLYPSDDLEAAKCDSVLDCATDFGINIRPSFMEKDQAKKMEMREDLAANFIPKWLASMEKQLASTGGIYFGEKMTVADIMIALRVKGLKGGVLDGVPTTIADSYPNLIALHDSIVGEPKIAAFIAKHAK
As for B1, under setting [1], the Km came to 674 µM, the catalytic constant (kcat) was found to be 0.478 s⁻¹ and the kcat/Km was determined as 709 M⁻¹ s⁻¹.

B2: SjGST20 (Saccharina japonica) (protein)
chain: MVPVFNYFGVPARGEATRVALAVAGVEFVDKIIPYAELHASGFRAVPVYQLDGTNYTQSTALLRYAGKLGGTYPEDPLEALKVDEIVMMVEDVFINIFADMKEKDEAKKLATHQALIAGKVKYLIEDIASKLEANTASPFCVGPSLTIADIMVHAMIATFQAGFLVGVPTTTAEDICPSLKGLDDAVMEHPKVKAYYASKA
B2: under setting [2], the Km turned out to be 2706 µM, the kcat amounted to 9.83 s⁻¹ and the catalytic efficiency (kcat/Km) was 3630 M⁻¹ s⁻¹.

The values above are taken from publication PMC10506224, “Isolation and characterization of glutathione S-transferase genes and their transcripts in Saccharina japonica (Laminariales, Phaeophyceae) during development and under abiotic stress” (BMC Plant Biology, 2023).
